Positions count from the first letter of the chain named. Names may count otherwise. “And” between values parts separate entries of the source, which are not always exact repeats. Equal entries are not always repeated.
B1: humanized XT-M4 hVH-V2.0 / hVL-V2.7 (antibody, human IgG1, V domains shown)
VH: EVQLVESGGGLVQPGGSLRLSCAASGFTFNNYWMTWVRQAPGKGLEWVASIDNSGDNTYYPDSVKDRFTISRDNAKNSLYLQMNSLRAEDTAVYYCARGGDITTGFDYWGQGTLVTVSS
VL: DIQMTQSPSSLSASVGDRVTITCRASQDVGIYVNWYQQKPGKAPKRLIYRATNLADGVPSRFSGSGSGTDFTLTISSLQPEDFATYYCLEFDEHPLTFGGGTKVEIK
B2: humanized XT-M4 hVH-V2.0 / hVL-V2.12 (antibody, human IgG1, V domains shown)
VH: B1 VH
VL: B1 VL with K45R, G66R
B3: humanized XT-M4 hVH-V2.0 / hVL-V2.14 (antibody, human IgG1, V domains shown)
VH: B1 VH
VL: B1 VL with Y36F, G66R
B4: humanized XT-M4 hVH-V2.0 / hVL-V2.4 (antibody, human IgG1, V domains shown)
VH: B1 VH
VL: B1 VL with R46L, G66R
B5: humanized XT-M4 hVH-V2.0 / hVL-V2.11 (antibody, human IgG1, V domains shown)
VH: B1 VH
VL: B1 VL with Y36F, K45R, G66R
B6: humanized XT-M4 hVH-V1.0 / hVL-V2.4 (antibody, human IgG1, V domains shown)
VH: B1 VH with D52N, A88S
VL: B1 VL with R46L, G66R
B7: humanized XT-M4 hVH-V1.0 / hVL-V2.7 (antibody, human IgG1, V domains shown)
VH: B1 VH with D52N, A88S
VL: B1 VL
B8: humanized XT-M4 hVH-V2.0 / hVL-V2.13 (antibody, human IgG1, V domains shown)
VH: B1 VH
VL: B1 VL with G66R
B9: XT-M4 VH-VL ScFv construct (scFv)
scFv: EVQLVESGGGLVQPGRSLKLSCVVSGFTFNNYWMTWIRQTPGKGLEWVASINNSGDNTYYPDSVKDRFTISRDNAKSTLYLQMNSLRSEDTATYYCTRGGDITTGFDYWGQGVMVTVSSDGGGSGGGGSGGGGSSDIQMTQSPSSMSVSLGDTITITCRASQDVGIYVNWFQQKPGKSPRRMIYRATNLADGVPSRFSGSRSGSIYSLTISSLESEDVADYHCLEFDEHPLTFGSGTKVEIK
notes: Flag tag inferred from detection
B10: XT-H2 VH-VL ScFv construct (scFv)
scFv: QVQLQQSGAELAKPGASVKMSCKASGYTFTTYWMHWVKQRPGQGLYWIGYINPSTGYTEYNQKFKDKATLTADKSSSTAYMQLSSLTSEDSAVYYCARWAGYTIDYWGQGTSVTVSSDGGGSGGGGSGGGGSSDVVLTQTPLSLPVNIGDQASISCKSTKSLLNSDGFTYLDWYLQKPGQSPQLLIYLVSDRFSGVPDRFSGSGSGTDFTLTISRVEAEDLGVYYCFQSNSLPLTFGSGTKLEIK
notes: as for B9
B11: mVH / v2.0 (V2, L4, S48) (antibody, V domains shown)
VH: QVQLQQSGAELAKPGASVKMSCKASGYTFTTYWMHWVKQRPGQGLYWIGYINPSTGYTEYNQKFKDKATLTADKSSSTAYMQLSSLTSEDSAVYYCARWAGYTIDYWGQGTSVTVSS
VL: DVVLTQTPLSLSVTPGQPASISCKSTKSLLNSDGFTYLDWYLQKPGQSPQLLIYLVSDRFSGVPDRFSGSGSGTDFTLKISRVEAEDVGVYYCFQSNSLPLTFGGGTKVEIK
notes: XT-H2 construct expressed in COS cells; also called XT-H2 mVH + hVL V2.0
B12: V2.0 (R40, Y46, I48, A71, K73) / v2.0 (V2, L4, S48) (antibody, V domains shown)
VH: QVQLVQSGAEVKKPGASVKVSCKASGYTFTTYWMHWVRQRPGQGLYWIGYINPSTGYTEYNQKFKDRVTMTADTSISTAYMELSRLRSDDTAVYYCARWAGYTIDYWGQGTLVTVSS
VL: B11 VL
notes: XT-H2 construct expressed in COS cells; also called XT-H2 hVH V2.0 + hVL V2.0
B13: V2.3 (I48M) / mVL (antibody, V domains shown)
VH: B12 VH with I48M
VL: B11 VL with S12P, T14N, P15I, Q17D, P18Q, K79T, V88L, G105S, V109L
notes: XT-H2 construct expressed in COS cells; also called XT-H2 hVH V2.3 + mVL
B14: V2.2 (Y46E) / mVL (antibody, V domains shown)
VH: B12 VH with Y46E
VL: B11 VL with S12P, T14N, P15I, Q17D, P18Q, K79T, V88L, G105S, V109L
notes: XT-H2 construct expressed in COS cells; also called XT-H2 hVH V2.2 + mVL
B15: V2.2 (Y46E) / v2.1 (antibody, V domains shown)
VH: B12 VH with Y46E
VL: B11 VL with V2I, L4M
notes: XT-H2 construct expressed in COS cells; also called XT-H2 hVH V2.2 + hVL V2.1
B16: V2.1 (R40A) / v2.1 (antibody, V domains shown)
VH: B12 VH with R40A
VL: B11 VL with V2I, L4M
notes: XT-H2 construct expressed in COS cells; also called XT-H2 hVH V2.1 + hVL V2.1
B17: V2.0 (R40, Y46, I48, A71, K73) / mVL (antibody, V domains shown)
VH: B12 VH
VL: B11 VL with S12P, T14N, P15I, Q17D, P18Q, K79T, V88L, G105S, V109L
notes: XT-H2 construct expressed in COS cells; also called XT-H2 hVH V2.0 + mVL
B18: V2.3 (I48M) / v2.1 (antibody, V domains shown)
VH: B12 VH with I48M
VL: B11 VL with V2I, L4M
notes: XT-H2 construct expressed in COS cells; also called XT-H2 hVH V2.3 + hVL V2.1
B19: V2.3 (I48M) / v2.0 (antibody, V domains shown)
VH: B12 VH with I48M
VL: B11 VL
notes: XT-H2 construct expressed in COS cells; also called XT-H2 hVH V2.3 + hVL V2.0
B20: V2.1 (R40A) / mVL (antibody, V domains shown)
VH: B12 VH with R40A
VL: B11 VL with S12P, T14N, P15I, Q17D, P18Q, K79T, V88L, G105S, V109L
notes: XT-H2 construct expressed in COS cells; also called XT-H2 hVH V2.1 + mVL
B21: V2.1 (R40A) / v2.0 (antibody, V domains shown)
VH: B12 VH with R40A
VL: B11 VL
notes: XT-H2 construct expressed in COS cells; also called XT-H2 hVH V2.1 + hVL V2.0
B22: V2.2 (Y46E) / v2.0 (antibody, V domains shown)
VH: B12 VH with Y46E
VL: B11 VL
notes: XT-H2 construct expressed in COS cells; also called XT-H2 hVH V2.2 + hVL V2.0
B23: V2.0 (R40, Y46, I48, A71, K73) / v2.1 (V2I, L4M) (antibody, V domains shown)
VH: B12 VH
VL: B11 VL with V2I, L4M
notes: XT-H2 construct expressed in COS cells; also called XT-H2 hVH V2.0 + hVL V2.1
B24: V2.0 (R40, Y46, I48, A71, K73) / v3.0 DPK24 grafted (antibody, V domains shown)
VH: B12 VH
VL: DIVMTQSPDSLAVSLGERATINCKSTKSLLNSDGFTYLDWYQQKPGQPPKLLIYLVSDRFSGVPDRFSGSGSGTDFTLTISSLQAEDVAVYYCFQSNSLPLTFGGGTKVEIK
notes: XT-H2 construct expressed in COS cells; also called XT-H2 hVH V2.0 + hVL V3.0
B25: V2.1 (R40A) / v3.0 (antibody, V domains shown)
VH: B12 VH with R40A
VL: B24 VL
notes: XT-H2 construct expressed in COS cells; also called XT-H2 hVH V2.1 + hVL V3.0
B26: V2.2 (Y46E) / v3.0 (antibody, V domains shown)
VH: B12 VH with Y46E
VL: B24 VL
notes: XT-H2 construct expressed in COS cells; also called XT-H2 hVH V2.2 + hVL V3.0
B27: V2.3 (I48M) / v3.0 (antibody, V domains shown)
VH: B12 VH with I48M
VL: B24 VL
notes: XT-H2 construct expressed in COS cells; also called XT-H2 hVH V2.3 + hVL V3.0

What follows are binders tested against T1, human RAGE-Fc fusion protein (human, UniProt Q15109 23-344) (assay: competition ELISA on coated hRAGE-Fc; competitor 12.5 ng/ml biotinylated rat XT-M4).
T1 construct: also called hRAGE-Fc; huRAGE-Fc; not shown: Fc domain of human IgG
Description: ELISA plates were coated overnight with 1 ug/ml human RAGE-Fc. […] Briefly, plates were coated overnight with 1 ug/ml human RAGE-Fc.
For B1, the IC50 was 8.5 µg/mL.
Work on B2 yielded an IC50 of 2.7 µg/mL.
B3 gave an IC50 of 0.2 µg/mL.
B4 showed an IC50 of 2.9 µg/mL.
B5 was tested, and the IC50 was 0.15 to 1.05 µg/mL and 0.1 to 0.45 µg/mL.
Work on B6 yielded an IC50 of 4.5 to 8.5 µg/mL.
Binder B7 has an IC50 of 4 to 9.5 µg/mL.
Work on B8 yielded an IC50 of 1.5 µg/mL.

Each binder was assayed against T1, human RAGE-Fc fusion protein (assay: ELISA of in vitro translated ScFv on coated human RAGE-Fc, anti-Flag detection).
Description: ELISA plates coated with human RAGE-Fc (5 ug/ml) or BSA (200 ug/ml) in bicarbonate buffer overnight at 4° C., washed with PBS+tween 0.05% and blocked for 1 hour at room temperature with 2% milk powder PBS. Plates were incubated with in vitro translated ScFv for 2 hours at room temp. Plates were blocked and detection was with anti-Flag antibody (1/1000 dilution) followed by rabbit anti-mouse HRP (1/1000 dilution). […] Values for Kd of the ScFv in both formats as determined by BIACORE™ are used to determine the optimum antigen concentrations for selection experiments.
B9: binds.
B10: binds.

These binders were tested against T1, human RAGE-Fc fusion protein (assay: competition ELISA on human RAGE-Fc; labelled competitor not named).
B11 gave an ED50 of 7 nM.
For B12, the ED50 was 5 nM.
B13 was tested, and the ED50 was 10 nM.
B14 showed an ED50 of 6 nM.
B15 was tested, and the ED50 was 5 nM.
B16 gave an ED50 of 7.5 nM.
With B17 the ED50 was 8 nM.
Work on B18 yielded an ED50 of 5 nM.
In the case of B19, the ED50 is reported as 4.5 nM.
In the case of B20, the ED50 is reported as 8 nM.
B21 showed an ED50 of 4 nM.
Work on B22 yielded an ED50 of 4 nM.
With B23 the ED50 was 5 nM.
With B24 the ED50 was 8 nM.
In the case of B25, the ED50 is reported as 5 nM.
In the case of B26, the ED50 is reported as 5 nM.
Binder B27 has an ED50 of 5 nM.

From patent publication US20070286858A1 (Pfizer, published 2007)
